Among the data in paper PMC3295573 (2012) are Kd values, retold here.

This test addresses T1, LidA(FL), untagged (Legionella pneumophila strain Corby).
T1 chain: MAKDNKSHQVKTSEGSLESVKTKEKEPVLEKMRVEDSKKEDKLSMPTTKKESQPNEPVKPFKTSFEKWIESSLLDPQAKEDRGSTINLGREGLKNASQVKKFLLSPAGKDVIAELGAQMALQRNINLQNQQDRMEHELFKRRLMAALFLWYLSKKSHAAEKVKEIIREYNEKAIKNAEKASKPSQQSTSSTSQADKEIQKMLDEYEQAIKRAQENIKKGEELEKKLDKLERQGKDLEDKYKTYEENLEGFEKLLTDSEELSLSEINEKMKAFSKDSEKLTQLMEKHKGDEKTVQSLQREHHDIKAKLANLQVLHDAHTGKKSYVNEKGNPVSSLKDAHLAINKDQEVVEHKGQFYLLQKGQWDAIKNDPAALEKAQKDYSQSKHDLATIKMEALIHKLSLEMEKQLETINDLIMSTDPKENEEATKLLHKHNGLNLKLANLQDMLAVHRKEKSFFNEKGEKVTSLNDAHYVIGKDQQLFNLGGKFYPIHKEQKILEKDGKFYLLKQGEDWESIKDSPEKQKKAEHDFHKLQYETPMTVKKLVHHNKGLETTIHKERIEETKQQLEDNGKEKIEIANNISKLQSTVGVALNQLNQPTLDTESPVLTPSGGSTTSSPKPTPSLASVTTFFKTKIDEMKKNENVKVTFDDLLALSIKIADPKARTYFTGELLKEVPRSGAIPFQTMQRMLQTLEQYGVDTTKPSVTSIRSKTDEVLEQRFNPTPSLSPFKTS
Put plainly: ITC.

B1: Rab22 (FL) (natural protein)
chain: MALRELKVCLLGDTGVGKSSIVWRFVEDSFDPNINPTIGASFMTKTVQYQNELHKFLIWDTAGQERFRALAPMYYRGSAAAIIVYDITKEETFSTLKNWVKELRQHGPPNIVVAIAGNKCDLIDVREVMERDAKDYADSIHAIFVETSAKNAININELFIEISRRIPSTDANLPSGGKGFKLRRQPSEPKRSCC
As for B1, binding was characterised by a dissociation constant (Kd) of 200 nM.
